Experimental data published in patent publication US20240218064A1 (AstraZeneca / MedImmune, published 2024).

Assays:
cynomolgus monkey LOX-1 = cynomolgus monkey LOX-1 (cynomolgus monkey, UniProt A0A2K5VQ73 79-291); assay: BIAcore (SPR)
[1] = biological target: T1, human LOX-1 (lectin-like oxidized low density lipoprotein receptor-1) (human, UniProt P78380 61-273); assay: BIAcore (SPR); Fab, not full mAb; LOX-1
[2] = biological target: T2, soluble LOX-1 (sLOX-1) in sera of participants with T2DM (human, UniProt P78380 89-273, limits assumed); assay: sLOX-1 in sera of participants with T2DM; the paragraph names BIAcore, the method for this value is not made clear; full mAb; sLOX-1 in sera of participants with T2DM
T2 construct: domain: cleaved soluble domain of LOX-1; Endogenous protein in patient serum; also called soluble lectin-like oxidized low-density lipoprotein receptor 1

[3] = biological target: T1, human LOX-1 (lectin-like oxidized low …); assay: in vitro inhibition of ligand binding to human LOX-1; competitor ligand CRP; ligand CRP
Text: (§1) FIG. 3. MEDI6570 inhibition of ligand binding. AGE-BSA=advanced glycation end products-bovine serum albumin; CRP=c-reactive protein; IgG-immunoglobulin G; OxLDL=oxidized low-density lipoprotein. Antibodies were titrated across a 384 well dilution plate in assay buffer (PBS/0.1% BSA/0.01% Tween 20) over 24 points in duplicate.
(§2) The ability of MEDI6570 to inhibit binding of the LOX-1 ligands oxLDL, AGE (advanced glycation end products, in this case glycated bovine serum albumin, BSA) and CRP was determined using in vitro assays. AGEs are known ligands of LOX-1. They commonly occur in patients that have poorly regulated levels of blood glucose, which is a risk factor for cardiovascular disease.

[4] = biological target: T1, human LOX-1 (lectin-like oxidized low …); assay: in vitro inhibition of ligand binding to human LOX-1; competitor ligand oxLDL; ligand oxLDL
Text: as §1, §2

[5] = biological target: T1, human LOX-1 (lectin-like oxidized low …); assay: in vitro inhibition of ligand binding to human LOX-1; competitor ligand AGE-BSA; ligand AGE-BSA
Text: as §1, §2

Row | Kd (cynomolgus monkey LOX-1) | Kd [1] | Kd [2] | IC50 [3] | IC50 [4] | IC50 [5] | Binder
1 | 0.116 nM | 0.056 nM |  |  |  |  | MEDI6570 Fab (Fab, V domains shown, also called Fab of the antibody MEDI6570) VH: QVQLVQSGAEVKKPGASVKVSCKVSGYTLTELSMHWVRQAPGKGLEWMGGFDPEDFKYHTHQKFQGRVTMTEDTSTDTAYMELSSLRSEDTAVYYCALVWGTQGKGVRGWDYYYGMDVWGQGTTVTVSS VL: QSVVTQPPSVSGAPGQRVTISCTGSSSNIGAGYDVHWYQQLPGTAPKLLIYGNSNRPSGVPDRFSGSKSGTSASLAITGLQAEDEADYYCQSYDSSLSGWVFGGGTKLTVL
2 |  |  | ~0.173 nM | 4.8 nM | 0.34 nM | 0.54 nM | MEDI6570 (antibody, human IgG1, lambda, V domains shown, Fully human IgG1-lambda; also called LX5140110-IgG1-TM) VH: QVQLVQSGAEVKKPGASVKVSCKVSGYTLTELSMHWVRQAPGKGLEWMGGFDPEDFKYHTHQKFQGRVTMTEDTSTDTAYMELSSLRSEDTAVYYCALVWGTQGKGVRGWDYYYGMDVWGQGTTVTVSS VL: QSVVTQPPSVSGAPGQRVTISCTGSSSNIGAGYDVHWYQQLPGTAPKLLIYGNSNRPSGVPDRFSGSKSGTSASLAITGLQAEDEADYYCQSYDSSLSGWVFGGGTKLTVLG
